6 molecules from US20200109196A1 (MOGAM INSTITUTE FOR BIOMEDICAL RESEARCH, published 2020) can be followed below.

The target in assay [1] is T1, recombinant human CEACAM-1/CD66a protein (R&D systems; Cat. No. 2244-CM) (human, UniProt P13688 35-428).
T1 construct: Bought protein; captured on anti-His (His1K) biosensors in the Octet assay, so it carries a His tag; also called HCCM1; recombinant CEACAM-1/CD66a protein
T1 sequence (looked up): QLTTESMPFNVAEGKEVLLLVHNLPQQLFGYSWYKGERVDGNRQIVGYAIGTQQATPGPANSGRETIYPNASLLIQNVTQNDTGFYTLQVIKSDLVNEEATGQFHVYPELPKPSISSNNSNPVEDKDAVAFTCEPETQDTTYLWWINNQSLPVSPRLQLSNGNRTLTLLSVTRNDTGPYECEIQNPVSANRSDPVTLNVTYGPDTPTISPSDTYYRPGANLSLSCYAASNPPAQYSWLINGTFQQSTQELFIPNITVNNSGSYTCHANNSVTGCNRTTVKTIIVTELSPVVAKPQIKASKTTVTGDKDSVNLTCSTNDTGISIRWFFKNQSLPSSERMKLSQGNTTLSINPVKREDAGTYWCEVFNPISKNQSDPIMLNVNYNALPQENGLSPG
The assay can be described thus: ELISA on coated recombinant CEACAM-1/CD66a (0.25 µg/ml), HRP anti-human IgG, OD450. On the procedure: Also, 2.5 μg of the recombinant CEACAM-1/CD66a protein (R&D systems; Cat. No. 2244-CM) was dissolved in 10 ml of PBS, and dispensed into 96-well plate (Nunc; Cat. No. 467679) at 100 μl/well and incubated overnight at 4° C. Thereafter, 300 μl of 1% (v/v) bovine serum albumin was added to each well, which was incubated at 37° C. for 1 hour.
Each of the diluted antibodies was subjected to serial dilutions in PBS at a 1:1 volume ratio for 6 times. Each of the antibodies diluted to 7 concentrations was dispensed into each well at 100 μl/well, which was incubated at 37° C. for 1 hour. Then, each well was washed 3 times with a washing buffer prepared by diluting 10 μl of Tween 20 (Sigma-Aldrich; Cat. No. P9146) in 990 μl of PBS. Thereafter, 2 μl of human IgG conjugated with HRP was diluted in 10 ml of PBS, which was then dispensed into each well at 100 μl/well and incubated for 1 hour.
Background: In an ELISA, binding on a coated surface is turned into a signal by an enzyme label.

Assay [2] deals with T2, recombinant human CEACAM-5/CD66e protein (R&D systems; Cat. No. 4128-CM) (human, UniProt P06731 35-685).
T2 construct: Bought protein; also called HCCM5
T2 sequence (looked up): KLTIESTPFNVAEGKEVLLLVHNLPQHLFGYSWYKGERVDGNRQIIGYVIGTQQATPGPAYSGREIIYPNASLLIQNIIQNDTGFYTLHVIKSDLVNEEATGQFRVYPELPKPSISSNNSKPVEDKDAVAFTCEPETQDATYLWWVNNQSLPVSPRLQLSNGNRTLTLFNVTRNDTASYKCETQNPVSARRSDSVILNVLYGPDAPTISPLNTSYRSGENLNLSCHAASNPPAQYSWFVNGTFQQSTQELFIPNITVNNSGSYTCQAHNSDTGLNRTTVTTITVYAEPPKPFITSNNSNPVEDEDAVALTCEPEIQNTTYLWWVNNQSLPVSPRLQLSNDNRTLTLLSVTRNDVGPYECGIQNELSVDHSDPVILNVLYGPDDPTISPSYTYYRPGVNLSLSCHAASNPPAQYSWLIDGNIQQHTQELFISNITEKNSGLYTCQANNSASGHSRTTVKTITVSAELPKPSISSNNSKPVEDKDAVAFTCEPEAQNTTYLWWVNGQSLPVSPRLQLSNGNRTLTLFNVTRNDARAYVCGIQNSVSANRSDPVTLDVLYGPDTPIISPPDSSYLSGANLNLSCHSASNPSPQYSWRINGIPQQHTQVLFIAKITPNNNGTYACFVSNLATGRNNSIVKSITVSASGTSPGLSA
The assay can be described thus: ELISA on coated antigen (0.25 µg/ml), HRP anti-human IgG Fab, OD450. The text has this:
(§1) All of the recombinant human CEACAM-1/CD66a protein (R&D systems; Cat. No. 2244-CM, HCCM1), recombinant human CEACAM-5/CD66e protein (R&D systems; Cat. No. 4128-CM, HCCM5), recombinant human CEACAM-6/CD66c protein (R&D systems; Cat. No. 3934-CM, HCCM6), recombinant human CEACAM-3/CD66d protein (Sino Biological; Cat. No. 11933-H08H, HCCM3), recombinant mouse PD-1 Fc chimeric protein (R&D systems; Cat. No. 1021-PD, mPD-1-Fc), recombinant CEACAM1-Fc (IgG4) protein (Mogam, in-house production, HCCM1-Fc), recombinant human CEACAM-1/CD66a protein Bulk (R&D systems; Cat. No. 2244-CM, HCCM1 (bulk)) and mouse CEACAM1/CD66a protein (Sino Biological; Cat. No. 50571-M08H, mouse CCM1) (2.5 μg each) were dissolved in 10 ml of PBS, respectively and dispensed into a 96-well plate (Nunc; Cat. No. 467679) at 100 μl/well, which was incubated overnight at 4° C. Thereafter, each well was treated with 300 μl of 1% (v/v) bovine serum albumin, which was incubated at 37° C. for 1 hour.
(§2) The diluted antibodies were dispensed into each well coated with each protein at 100 μl/well, which was incubated at 37° C. for 1 hour. Then, each well was washed 3 times with a washing buffer prepared by diluting 10 μl of Tween 20 (Sigma-Aldrich; Cat. No. P9146) in 990 μl of PBS. Thereafter, 2 μl of HRP-conjugated human anti-IgG-Fab antibody (anti-human IgG Fab; Sigma; Cat. No. A0293) was diluted in 10 ml of PBS, added to the wells at 100 μl/well, and incubated for 1 hour.
(§3) After completion of the reaction, the wells were washed three times with the washing buffer, and 100 μl of TMB solution was added to each well to induce color development. Then, 100 μl of 2 M H₂SO₄ was added to each well to stop the reaction, and the absorbance was measured at a wavelength of 450 nm.

The target in assay [3] is T3, recombinant human CEACAM-3/CD66d protein (Sino Biological; Cat. No. 11933-H08H) (human, UniProt P40198 35-155).
T3 construct: Bought protein; also called HCCM3
T3 sequence (looked up): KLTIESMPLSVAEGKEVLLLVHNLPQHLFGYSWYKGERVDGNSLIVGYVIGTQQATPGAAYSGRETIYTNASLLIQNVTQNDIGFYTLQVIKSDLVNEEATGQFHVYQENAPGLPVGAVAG
The assay is described as above.
Description: as §1, §2, §3

B1: C15 (antibody, human IgG4 S228P, lambda, V domains shown)
VH: EVQLLESGGGLVQPGGSLRLSCAASGFTFSSYSMSWVRQAPGKGLEWVSSISPNGGNKYYADSVKGRFTISRDNSKNTLYLQMNSLGAEDTAVYYCAKDPYNIYQPLFDYWGQGTLVTVSS
VL: QSVLTQPLSASGTPGQRVTISCSGSSSNIGNNYVNWYQQLPGTAPKLLIYANSNRPSGVPDRFSGSKSGTSASLAISGLRSEEEADYYCGTWDASLSAYVFGGGTKLTVLG
In the case of B1, the figures for the binding result in assay [1] and in assay [2] were “binds” and “no binding (tested: 3 µg/ml (single concentration))”, respectively.

B2: C18 (antibody, human IgG4 S228P, lambda, V domains shown)
VH: EVQLLESGGGLVQPGGSLRLSCAASGFTFSNYDMSWVRQAPGKGLEWVSGISHSSGSKYYADSVKGRFTISRDNSKNTLYLQMNSLRAEDTAVYYCARDPLPCLIPKCSYYYAMDVWGQGTLVTVSS
VL: QSVLTQPPSAPGTPGQRVTISCSGSSSNIGSNAVTWYQQLPGTAPKLLIYADSHRPSGVPDRFSGSKSGTSASLAISGLRSEDEADYYCGSWDDSLNAYVFGGGTKLTVLG
B2: the binding result in assay [2] is given as “no binding (tested: 3 µg/ml (single concentration))”.

B3: C25 (antibody, human IgG4 S228P, lambda, V domains shown)
VH: EVQLLESGGGLVQPGGSLRLSCAASGFTFSNYAMSWVRQAPGKGLEWVSVISHGGGSIYYADSVKGRLTISRDNSKNTLYLQMNSLRAEDTAVYYCARDPTKGYAPTFDYWGQGTLVTVSS
VL: QSVLTQPPSASGTPGQRVTISCSGSSSNIGNNYVSWYQQLPGTAPKLLIYADSKRPSGVPDRFSGSKSGTSASLAISGLRSEDEADYYCGAWDASLNGYVFGGGTKLTVLG
notes: Made in ExpiHEK293F cells, protein A purified. huIgG4 is the isotype control and anti-huIgG4 the detection reagent; the isotype is not otherwise stated; also called anti-CEACAM1 antibody C25
Turning to B3, in assay [1], the EC50 (read off the curve) (in general, the concentration at which the effect is half-maximal) is around 0.2 µg/mL. The binding result in assay [2] and in assay [3] was “no binding (tested: 3 µg/ml (single concentration))” throughout.

B4: C26 (antibody, human IgG4 S228P, lambda, V domains shown)
VH: EVQLLESGGGLVQPGGSLRLSCAASGFTFSGYDMSWVRQAPGKGLEWVSWISYGGGSIYYADSVKGRFTISRDNSKNTLYLQMNSLRAEDTAVYYCAKDRLPQKAVRHSYANGMDVWGQGTLVTVSS
VL: QSVLTQPPSASGTPGQRVTISCSGSSSNIGNNYVTWYQQLPGTAPKLLIYADSHRPSGVPDRFSGSKSGTSASLAISGLRSEDEADYYCGAWDYSLSGYVFGGGTKLTVLG
In the case of B4, the 50% effective concentration (EC50 (read off the curve)) in assay [1] is around 0.3 µg/mL. Further, the binding result in assay [2] and in assay [3] was “no binding (tested: 3 µg/ml (single concentration))” in each case.

B5: C17 (antibody, human IgG4 S228P, lambda, V domains shown)
VH: EVQLLESGGGLVQPGGSLRLSCAASGFTFSDYSMSWVRQAPGKGLEWVSVIYPDDGNTYYADSVKGRFTISRDNSKNTLYLQMNSLRAEDTAVYYCARGSIWWLSLIPSSYNAMDVWGQGTLVAVSS
VL: QSVLTQPPSASGTPGQRVTISCSGSSSNIGNNAVNWYQQLPGTAPKLLIYANSHRPSGVPDRFSGSKSGTSASLAISGLRSEDEADYYCGAWDASLNGYVFGGGTKLTVLG
Consider B5, for which the binding result in assay [1] is “binds”.

B6: C19 (antibody, human IgG4 S228P, lambda, V domains shown)
VH: EVQLLESGGGLVQPGGSLRLSCAASGFTFSGYAMSWVRQAPGKGLEWVSGIYHDGGSTYYADSVKGRFTISRDNSKNTLYLQMNSLRAEDTAVYYCARVTVLCTTYGCSSYDGMDVWGQGTLVTVSS
VL: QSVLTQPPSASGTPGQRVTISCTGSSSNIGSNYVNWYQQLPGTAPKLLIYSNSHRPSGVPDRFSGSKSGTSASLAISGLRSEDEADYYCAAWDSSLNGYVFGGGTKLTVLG
Regarding B6, the binding result in assay [3] is “no binding (tested: 3 µg/ml (single concentration))”.
